According to PMC9346500 (EMBO Reports, 2022):
Numbering of substitutions follows the chain as printed. Names may count otherwise. Values belong to the binder of their own block, whether it stands above or below them.

Columns and labels:
[1] = molecular target: T1, M1-linked tetraubiquitin (M1-Ub4) (UniProt P0CG48 1-76; P0CG48 1-76; P0CG48 1-76; P0CG48 1-76); test: NMR titration
[2] = molecular target: HOTag6-G10-Ub (designed tetrameric ubiquitin construct); test: NMR titration
[3] = molecular target: T1, M1-linked tetraubiquitin (M1-Ub4); test: fluorescence polarisation
[4] = molecular target: HOTag6-G10-Ub (designed tetrameric ubiquitin construct); test: fluorescence polarisation
[5] = molecular target: ubiquitin (Ub) (UniProt P0CG48 1-76); test: fluorescence polarisation

T1 sequence (P0CG48 1-304, one chain of several): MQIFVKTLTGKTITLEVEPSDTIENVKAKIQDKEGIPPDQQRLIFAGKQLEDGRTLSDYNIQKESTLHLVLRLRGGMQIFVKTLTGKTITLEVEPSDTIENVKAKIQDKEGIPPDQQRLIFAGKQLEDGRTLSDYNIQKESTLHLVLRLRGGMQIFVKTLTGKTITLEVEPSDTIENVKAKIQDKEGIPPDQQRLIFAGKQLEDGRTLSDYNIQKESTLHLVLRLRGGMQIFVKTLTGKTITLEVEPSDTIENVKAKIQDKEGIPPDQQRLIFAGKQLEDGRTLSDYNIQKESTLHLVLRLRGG

Kd [1]: 12.8 µM
Kd [2]: 8.8 µM
B1: UBQLN2 450–624 (domain or fragment, UniProt Q9UHD9 450-624, looked up)
chain: RAMQALMQIQQGLQTLATEAPGLIPSFTPGVGVGVLGTAIGPVGPVTPIGPIGPIVPFTPIGPIGPIGPTGPAAPPGSTGSGGPTGPTVSSAAPSETTSPTSESGPNQQFIQQMVQALAGANAPQLPNPEVRFQQQLEQLNAMGFLNREANLQALIATGGDINAAIERLLGSQPS

Kd [3]: 5.1 µM
Kd [4]: 7 µM
Kd [5]: 3.4 µM
B2: fluorescently-labeled UBQLN2 450–624 (S624C, Alexa Fluor 488) (domain or fragment, UniProt Q9UHD9 450-624, looked up)
chain: B1 chain with S175C
modifications: Alexa Fluor 488 C5 Maleimide on the cysteine of S624C
